Reference: article PMC11237882 (Protein Science : A Publication of the Protein Society, 2024)

Legend:
[1] = tested on: ENAH EVH1 domain tetramers; experiment: Peptide SPOT array, ENAH EVH1 domain tetramers; format: binding, human; details: SPOT intensities, tetrameric EVH1, 0.5 μM monomer
Description: Protein expression was carried out as above.
ABI3 substitution and overlapping motif SPOT arrays were synthesized at the MIT Biopolymer Facility using an Intavis SPOT synthesis peptide arrayer system. At the N‐terminus, the 20‐mer peptides were capped with a Gly‐Ser linker and acetylated. The peptides were linked to the cellulose membrane by a C‐terminal PEG spacer. For the overlapping motif array, because many of the peptide sequences contain additional Ena/VASP and Homer motifs, each peptide was also synthesized as a control where the internal proline tract was mutated to poly‐glycine. The protocol for blocking and probing the membrane was adapted from Frank and Dübel ([2006]). […] The following day, the array was washed in T‐TBS (TBS + 0.05% Tween‐20) and then incubated with the protein sample in MBS (+1 μM DTT) for 3 h at room temperature. All array experiments were carried out with streptavidin‐Cy3 (Thermo Fisher) pre‐tetramerized EVH1 at a final monomer concentration of 0.5 μM. The membrane was washed three times in T‐TBS prior to scanning on a GE Amersham Imager 680. SPOT intensities were calculated using the ImageJ analysis software (Abràmoff et al., [2004]). No background correction was performed. For the overlapping peptides, the final intensity was calculated as the difference between the intensity of the wild‐type and motif knockout control. […]

Homer1 EVH1 domain = Homer1 EVH1 domain (Homo sapiens, UniProt Q86YM7); details: read-out: K D ^Homer1; pH 7.6; SD
[2] = molecular target: ddEVH1 (D. discoideum EVH1 domain of ddVASP) (Dictyostelium discoideum, UniProt Q5TJ65)
ddEVH1 (D. discoideum EVH1 domain of ddVASP), sequence (Q5TJ65 with tags, fused parts or gaps): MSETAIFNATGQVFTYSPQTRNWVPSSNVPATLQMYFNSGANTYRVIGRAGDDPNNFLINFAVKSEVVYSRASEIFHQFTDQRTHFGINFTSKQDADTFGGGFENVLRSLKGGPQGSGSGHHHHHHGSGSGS

Homer1 EVH1 domain, sequence (Q86YM7 with tags, fused parts or gaps): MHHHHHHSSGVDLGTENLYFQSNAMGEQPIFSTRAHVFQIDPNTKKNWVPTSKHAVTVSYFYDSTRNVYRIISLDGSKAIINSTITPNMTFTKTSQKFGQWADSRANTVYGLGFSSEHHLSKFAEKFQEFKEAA

DIESDFPPPPEDFPAADELP [FAT1]
Binding to ENAH relative to Homer1 EVH1 in the SPOT array assay [1]: two‐ to three‐fold better | Kd (Homer1 EVH1 domain): 98 ± 7 µM | ddEVH1 binding, result in words [2]: bound poorly
